We go through 4 molecules from US9243231B2, “Mutant cytochrome P450 2B6 proteins and uses thereof” (Institut National de la Santé et de la Recherche Médicale …, priority 2011, dated 2016).

Substitutions are numbered along the chain they refer to. Numbers in names are those of the source. Entries after “also recorded” stand apart in the source; their conditions may differ.

The test system of data set [1] is TC1-Luc2 mouse pulmonary tumour cells. Put plainly: In vivo cytotoxicity assay, subcutaneous TC1 tumours in mice treated with CPA. The conditions noted are these: CPA 140 mg/kg i.p., C57Bl6 mice, FIG. 14. On the procedure: To test the capacity of the triple mutant to enhance the response to CPA in vivo, a mouse model was used. Mouse pulmonary tumour cells (TC1-Luc2) were infected with a lentivirus vector carrying the CYP2B6TM-RED construct and injected subcutaneously into C57Bl6 mice. As a control, uninfected TC1 cells-were injected. TC1-Luc2 cells express luciferase, permitting tumour size to be monitored via bioluminescence.
In initial experiments, 10 mice were injected with CYP2B6TM-RED-TC1 cells and 10 were injected with uninfected TC1 cells. Tumour growth was monitored, and when the tumour size reached approximately 400 mm^3 half of the mice were treated with CPA via intraperitoneal injection at 140 mg/kg. untreated mice were sacrificed when tumour volume reached around 1500 mm^3.

Data set [2] in a line: CPA 4-hydroxylase activity in yeast microsomes. Type of data set: biochemical. The conditions noted are these: for Vmax of CPA-4' hydroxylation / Km / CPA hydroxylase activity Vmax: yeast microsomes; for Vmax of CPA-4' hydroxylation / Km: FIG. 9; for Km: read-out: Km of CPA-4' hydroxylation; for CPA hydroxylase activity Vmax: Table 1. An excerpt:
CYP2B6 wt or CYP2B6TM alone or in fusion with RED were expressed in the MR) yeast strain, in which yeast NADPH cytochrome P450 reductase was constitutively expressed. The pYeDP60 plasmids were introduced into intact yeast cells based on a refined lithium acetate-mediated protocol as described in Truan et al, 1993, above. Yeast culture conditions were as described in Bellamine A, Gautier J C, Urban P, Pompon D (1994): Chimeras of the human cytochrome P450 1A family produced in yeast. Accumulation in microsomal membranes, enzyme kinetics and stability. Eur J Biochem 225:1005-13. Yeast microsomes were prepared based on the mechanical disruption method using glass beads as described in Bellamine A, Gautier J C, Urban P, Pompon D. (1994): Chimeras of the human cytochrome P450 1A family produced in yeast. Accumulation in microsomal membranes, enzyme kinetics and stability. Eur J Biochem 225:1005-13. The fluorometric determination of yeast microsomal CPA 4-hydroxylase was adapted from a technique described previously (Roy P, Yu […]. (1999): […] Drug Metab Dispos 27:655-66) for a 96-well microplate with several modifications. Incubations were carried out for 1 h at 28° C. in a total volume of 200 μl and included 100 mM sodium phosphate buffer, pH 7.4, 1 mM EDTA, 10 pmol of CYP2B6 wt or CYP2B6TM or CYP2B6TM-RED with different linkers (microsomal P450 content was spectrally determined by the method of Schoene […], von Oldershausen H F. (1972): Determination of drug metabolizing enzymes in needle biopsies of human liver. Eur J Clin Pharmacol 4:65-73) and 10 mM CPA. Reactions were initiated by adding the NADPH-generating system and stopped by the addition of 200 μl of 10% trichloroacetic acid. After centrifugation at 13,000 g and 4° C. for 15 min to pellet the proteins, 300 μl of the supernatant was transferred to a clean test tube containing 160 μl of the fluorescence mixture (6 mg of 3-aminophenol and 6 mg of hydroxylamine hydrochloride freshly dissolved in 1 ml of 1N HCl). […] After cooling to room temperature, fluorescence reading were performed on a Bio-tek FL600 microplate fluorescence reader (excitation at 350 nm and emission at 515 nm). […] Data were analyzed using Prism software (Graph-Pad Software, Inc., San Diego, Calif.) to calculate kinetic parameters (Km, Vmax), with Vmax values expressed as moles of product formed per minute, normalized to the moles of P450 included in each reaction (turnover number expressed as minutes^-1). Data shown were based on duplicate determinations for each data point.

The conditions of data set [3]: double mutant, earlier publication; cited from earlier work.

Take `O=P1(N(CCCl)CCCl)NCCCO1` (stereo not drawn) [CPA, cyclophosphamide]: the “change in tumour volume after CPA, uninfected TC1 tumours” value in data set [1] was “only a modest effect on the uninfected tumour cells and did not produce an overall reduction in tumour volume; also recorded: slowed this rapid increase in uninfected tumour cells but obtained no reduction in overall tumour size”.

B1: CYP2B6TM: human CYP2B6 triple mutant with substitutions I114V, L199M and V477W (SEQ ID No 1) (protein, listed as Homo sapiens)
chain: MELSVLLFLALLTGLLLLLVQRHPNTHDRLPPGPRPLPLLGNLLQMDRRGLLKSFLRFREKYGDVFTVHLGPRPVVMLCGVEAIREALVDKAEAFSGRGKIAMVDPFFRGYGVVFANGNRWKVLRRFSVTTMRDFGMGKRSVEERIQEEAQCLIEELRKSKGALMDPTFLFQSITANIICSIVFGKRFHYQDQEFLKMMNLFYQTFSLISSVFGQLFELFSGFLKYFPGAHRQVYKNLQEINAYIGHSVEKHRETLDPSAPKDLIDTYLLHMEKEKSNAHSEFSHQNLNLNTLSLFFAGTETTSTTLRYGFLLMLKYPHVAERVYREIEQVIGPHRPPELHDRAKMPYTEAVIYEIQRFSDLLPMGVPHIVTQHTSFRGYIIPKDTEVFLILSTALHDPHYFEKPDAFNPDHFLDANGALKKTEAFIPFSLGKRICLGEGIARAELFLFFTTILQNFSMASPVAPEDIDLTPQECGWGKIPPTYQIRFLPR
What is called Km is the substrate concentration at which the rate is half of its maximum. B1: the “affinity for CPA relative to wild-type enzyme” value in data set [2] (greater than wild-type) worked out at 8 times. Also, in data set [2] (in words), the “Vmax compared with wild-type enzyme” value is “retaining the same Vmax”. In data set [2] (more efficient than wild-type protein), the “efficiency at metabolising CPA into cytotoxic metabolite relative to wild-type” value was determined as 10 times. Moreover, in data set [2], the “Vmax of CPA-4' hydroxylation” value came to 107.5 ± 3.4 min⁻¹, the Michaelis constant (Km) amounted to 510 ± 80 µM and the “CPA hydroxylase activity Vmax” value is given as 105.5 nmol 4OH-CPA/min/nmol CYP2B6. In addition, in data set [1], the “change in tumour volume after CPA, tumours expressing CYP2B6TM-RED” value is “dramatic reductions in tumour size”.

B2: I114V/V477W: previously published CYP2B6 double active site mutant (Nguyen et al 2008) (protein, UniProt P20813 1-491, looked up, variant I114V V477W)
Cytochrome P450 2B6: B1 chain with M199L
For the molecule B2, the “CPA-4-hydroxylation efficiency compared to wild-type enzyme” value in data set [3] is “four-fold increase”.

B3: CYP2B6wt: wild-type human cytochrome P450 2B6, without reductase (protein, UniProt P20813 1-491, looked up)
Cytochrome P450 2B6: B1 chain with V114I, M199L, W477V
Regarding B3, in data set [2], the “Vmax of CPA-4' hydroxylation” value came out at 107.3 ± 3.74 min⁻¹, the Michaelis constant (Km) was determined as 4330 ± 500 µM and the “CPA hydroxylase activity Vmax” value is reported as 62.5 nmol 4OH-CPA/min/nmol CYP2B6.
